B1: KIAA0774 (parent)
chain: FEDEVKRLGWQQQAELQELEERLQ
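Further: lentivirally expressed fusions sorted by FACS into six bins by GFP to DsRed ratio, PSI derived from sequencing read proportions per bin multiplied by bin number.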

Variants of B1 are the subject of this data set. Nature of the data set: protein stability index of a GFP-peptide fusion (GPS, HEK-293T) (PSI 1-6); higher = more stable. The following applies: c terminus: a fixed tail appended.
FEDEVKRLSWQQQAELQELEERLQ: the protein stability index worked out at 1.91. In the case of YEDEVKRLGWQQQAELQELEERLQ, the protein stability index amounted to 3.38.

Regarding VEDEVKRLGWQQQAELQELEERLQ, the protein stability index came out at 3.66. For the variant DEDEVKRLGWQQQAELQELEERLQ, the protein stability index was found to be 4.72. Next, LEDEVKRLGWQQQAELQELEERLQ: 4.06; EEDEVKRLGWQQQAELQELEERLQ: 4.66. CEDEVKRLGWQQQAELQELEERLQ: the protein stability index is 3.11. As for SEDEVKRLGWQQQAELQELEERLQ, the protein stability index was determined as 2.67. Next, HEDEVKRLGWQQQAELQELEERLQ: 4.02; PEDEVKRLGWQQQAELQELEERLQ: 4.12; WEDEVKRLGWQQQAELQELEERLQ: 3.93. For FEDEVKRVGWQQQAELQELEERLQ, the protein stability index was found to be 4.25. FEDEVKRIGWQQQAELQELEERLQ: the protein stability index was determined as 3.86. For FEDEVKRWGWQQQAELQELEERLQ, the protein stability index came out at 3.4. Take FEDEVKREGWQQQAELQELEERLQ: the protein stability index was 4.52.

As for FEDEVKRDGWQQQAELQELEERLQ, the protein stability index worked out at 4.77. For the variant FEDEVKRGGWQQQAELQELEERLQ, the protein stability index came out at 3.42. With FEDEVKRKGWQQQAELQELEERLQ, the protein stability index is 3.57. FEDEVKRYGWQQQAELQELEERLQ: the protein stability index turned out to be 3.72.

On to FEDEVKRQGWQQQAELQELEERLQ, for which the protein stability index turned out to be 4.48. Turning to FEDEVKRHGWQQQAELQELEERLQ, the protein stability index stood at 3.79. As for FEDEVKRLGWQQQAELQELEERFQ, the protein stability index stood at 4.09. For FEDEVKRLGWQQQAELQELEERCQ, the protein stability index was determined as 4.14.

For FEDEVKRLGWQQQAELQELEERPQ, the protein stability index was found to be 5.48.

For FEDEVKRLGWQQQAELQELEERRQ, the protein stability index was 4.58.

For FEDEVKRLGWQQQAELQELEERWQ, the protein stability index is 3.88. The value for FEDEVKRLGWQQQAELQELEERIQ was 3.97; that for FEDEVKRLGWQQQAELQELEERAQ was 4.08; that for FEDEVKRLGWQQQAELQELEERQQ was 4.05. The value for FEDEVKRLGWQQQAELQELEERTQ was 4.84; that for FEDEVKRLGWQQQAELQELEEGLQ was 5.26; that for FEDEVKRLGWQQQAELQELEEPLQ was 5.33. On to FEDEVKRLGWQQQAELQELEEYLQ, for which the protein stability index was determined as 4.24. On to FEDEVKRLGWQQQAELQELEEALQ, for which the protein stability index came out at 4.99. On to FEDEVKRLGWQQQAELQELEEDLQ, for which the protein stability index is 5.9.

Take FEDEVKRLGWQQQAELQELEECLQ: the protein stability index stood at 4.48. The value for FEDEVKRLGWQQQAELQELEEQLQ was 4.95; that for FEDEVKRLGWQQQAELQELEESLQ was 5.01. With FEDEVKRLGWQQQAELQELEEHLQ, the protein stability index is 4.88.

Take FEDEVKRLGWQQQAELQELEEMLQ: the protein stability index is 4.04. Consider FEDLVKRLGWQQQAELQELEERLQ, for which the protein stability index is 2.47.

On to FEDPVKRLGWQQQAELQELEERLQ, for which the protein stability index was determined as 3.56. With FEDHVKRLGWQQQAELQELEERLQ, the protein stability index was determined as 3.59.

With FEDSVKRLGWQQQAELQELEERLQ, the protein stability index was found to be 2.83.

Turning to FEDWVKRLGWQQQAELQELEERLQ, the protein stability index was 2.81. As for FEDQVKRLGWQQQAELQELEERLQ, the protein stability index was 3.26.

In the case of FEDEVKRLGWQQQAECQELEERLQ, the protein stability index was determined as 4.75. As to FEDEVKRLGWQQQAETQELEERLQ, the protein stability index came out at 5.08. Next, FEDEVKRLGWQQQAEIQELEERLQ: 3.89; FEDEVKRLGWQQQAEYQELEERLQ: 4.13. FEDEVKRLGWQQQAEHQELEERLQ: the protein stability index amounted to 4.84. FEDEVKRLGWQQQAEDQELEERLQ: the protein stability index turned out to be 5.11. Next, FEDEVKRLGWQQQAEQQELEERLQ: 4.09; FEDEVKRLGWQQQAEGQELEERLQ: 5.23; FEDEVKRLGWQQQAEAQELEERLQ: 4.34.

Regarding FFDEVKRLGWQQQAELQELEERLQ, the protein stability index stood at 3.25.

Turning to FSDEVKRLGWQQQAELQELEERLQ, the protein stability index worked out at 2.32.

Regarding FLDEVKRLGWQQQAELQELEERLQ, the protein stability index worked out at 3.05. For the variant FWDEVKRLGWQQQAELQELEERLQ, the protein stability index came out at 3.33. With FADEVKRLGWQQQAELQELEERLQ, the protein stability index came out at 2.71.

With FQDEVKRLGWQQQAELQELEERLQ, the protein stability index came to 2.93. The value for FEDEVKRLGWQQQAELQELEKRLQ was 4.76; that for FEDEVKRLGWQQQAELQELEDRLQ was 4.27. Next, FEDEVKRLGWQQQAELQELEPRLQ: 4.51; FEDEVKRLGWQQQAELQELELRLQ: 4.71; FEDEVKRLGWQQQAELQELENRLQ: 3.17. For FEDEVKRLGWQHQAELQELEERLQ, the protein stability index was 3.1. Consider FEDEVKRLGWQVQAELQELEERLQ, for which the protein stability index was 2.83.

In the case of FEDEVKRLGWQAQAELQELEERLQ, the protein stability index was 3.83. For FEDEVKRLGWQMQAELQELEERLQ, the protein stability index is 3.13. As to FEDEVKRLGWQSQAELQELEERLQ, the protein stability index turned out to be 5.12. Turning to FEDEVKRLGWQDQAELQELEERLQ, the protein stability index stood at 4.85.

With FEDEVKRLGWQLQAELQELEERLQ, the protein stability index worked out at 2.85.

Turning to FEDEVKRLGWQNQAELQELEERLQ, the protein stability index came out at 4.8. For FEDEVKRLGWQCQAELQELEERLQ, the protein stability index came to 2.14. For FEDEVKRLGWQTQAELQELEERLQ, the protein stability index was 3.45.

Take FEDEVKCLGWQQQAELQELEERLQ: the protein stability index was determined as 4.61. Regarding FEDEVKDLGWQQQAELQELEERLQ, the protein stability index worked out at 4.89. For FEDEVKYLGWQQQAELQELEERLQ, the protein stability index is 4.21. For the variant FEDEVKLLGWQQQAELQELEERLQ, the protein stability index came out at 3.68. With FEDEVARLGWQQQAELQELEERLQ, the protein stability index amounted to 4.54. With FEDEVRRLGWQQQAELQELEERLQ, the protein stability index amounted to 4.03.

On to FEDEVTRLGWQQQAELQELEERLQ, for which the protein stability index stood at 4.31. Next, FEDEVQRLGWQQQAELQELEERLQ: 4.07; FEDEVDRLGWQQQAELQELEERLQ: 3.75; FEDEVPRLGWQQQAELQELEERLQ: 4.48. The value for FEDEVLRLGWQQQAELQELEERLQ was 4.12; that for FEDEVVRLGWQQQAELQELEERLQ was 4.52; that for FEDEVERLGWQQQAELQELEERLQ was 4.67.

For the variant FENEVKRLGWQQQAELQELEERLQ, the protein stability index was found to be 2.75. Next, FEAEVKRLGWQQQAELQELEERLQ: 3.33; FEQEVKRLGWQQQAELQELEERLQ: 3.29; FESEVKRLGWQQQAELQELEERLQ: 2.58.

Regarding FEREVKRLGWQQQAELQELEERLQ, the protein stability index came to 2.35.

These data come from the supplement of paper PMC10567573.
